Assay results as given in patent publication US7422745 (IXSYS, dated 2008).

Tests used:
[1] = target: integrin αvβ3 on cells (M21 human melanoma cells; human umbilical vein endothelial cells) (human) (UniProt P06756); assay: cell-based or functional assay
[2] = target: T1, integrin αvβ3 (human vitronectin receptor), purified from human placenta (human, UniProt P06756 31-1048; P05106 27-788); assay: ELISA titration of bacterial cell lysate containing Fab on immobilized αvβ3, detection with goat anti-human kappa-alkaline phosphatase
T1 construct: mature; coated on ELISA plates or immobilized on a BIAcore chip; Biotinylated in capture lift and capture ELISA screens; also called avb3; αvβ3 receptor
T1 sequence (P06756 31-1048, form in doubt, chain 1 of 2): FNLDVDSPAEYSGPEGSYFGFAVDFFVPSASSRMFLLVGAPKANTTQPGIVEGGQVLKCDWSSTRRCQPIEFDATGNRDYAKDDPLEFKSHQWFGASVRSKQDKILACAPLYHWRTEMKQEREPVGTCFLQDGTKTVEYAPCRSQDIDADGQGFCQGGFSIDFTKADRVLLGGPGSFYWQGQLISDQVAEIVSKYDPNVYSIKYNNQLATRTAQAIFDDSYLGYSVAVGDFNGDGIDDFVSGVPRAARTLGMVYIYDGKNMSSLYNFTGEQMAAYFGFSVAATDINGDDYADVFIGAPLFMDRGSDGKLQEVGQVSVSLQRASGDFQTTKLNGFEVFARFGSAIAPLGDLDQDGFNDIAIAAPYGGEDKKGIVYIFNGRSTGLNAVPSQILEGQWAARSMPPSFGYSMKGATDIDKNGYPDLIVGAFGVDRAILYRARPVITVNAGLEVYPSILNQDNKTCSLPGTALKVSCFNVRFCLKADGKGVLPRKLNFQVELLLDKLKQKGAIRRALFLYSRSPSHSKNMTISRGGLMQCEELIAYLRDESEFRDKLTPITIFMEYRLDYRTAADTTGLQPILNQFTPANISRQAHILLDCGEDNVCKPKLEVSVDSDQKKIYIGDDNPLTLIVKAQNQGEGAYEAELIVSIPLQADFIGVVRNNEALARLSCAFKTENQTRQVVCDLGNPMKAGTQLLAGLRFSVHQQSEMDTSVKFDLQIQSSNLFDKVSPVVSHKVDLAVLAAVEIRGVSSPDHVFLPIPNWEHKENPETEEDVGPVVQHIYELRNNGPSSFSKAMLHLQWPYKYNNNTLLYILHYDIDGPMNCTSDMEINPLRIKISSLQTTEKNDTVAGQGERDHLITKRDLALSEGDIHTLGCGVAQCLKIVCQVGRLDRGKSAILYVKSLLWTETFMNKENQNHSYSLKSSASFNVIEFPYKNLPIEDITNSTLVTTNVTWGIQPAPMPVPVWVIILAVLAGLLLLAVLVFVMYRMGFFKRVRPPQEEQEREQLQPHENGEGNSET
T1 sequence (P05106 27-788, form in doubt, chain 2 of 2): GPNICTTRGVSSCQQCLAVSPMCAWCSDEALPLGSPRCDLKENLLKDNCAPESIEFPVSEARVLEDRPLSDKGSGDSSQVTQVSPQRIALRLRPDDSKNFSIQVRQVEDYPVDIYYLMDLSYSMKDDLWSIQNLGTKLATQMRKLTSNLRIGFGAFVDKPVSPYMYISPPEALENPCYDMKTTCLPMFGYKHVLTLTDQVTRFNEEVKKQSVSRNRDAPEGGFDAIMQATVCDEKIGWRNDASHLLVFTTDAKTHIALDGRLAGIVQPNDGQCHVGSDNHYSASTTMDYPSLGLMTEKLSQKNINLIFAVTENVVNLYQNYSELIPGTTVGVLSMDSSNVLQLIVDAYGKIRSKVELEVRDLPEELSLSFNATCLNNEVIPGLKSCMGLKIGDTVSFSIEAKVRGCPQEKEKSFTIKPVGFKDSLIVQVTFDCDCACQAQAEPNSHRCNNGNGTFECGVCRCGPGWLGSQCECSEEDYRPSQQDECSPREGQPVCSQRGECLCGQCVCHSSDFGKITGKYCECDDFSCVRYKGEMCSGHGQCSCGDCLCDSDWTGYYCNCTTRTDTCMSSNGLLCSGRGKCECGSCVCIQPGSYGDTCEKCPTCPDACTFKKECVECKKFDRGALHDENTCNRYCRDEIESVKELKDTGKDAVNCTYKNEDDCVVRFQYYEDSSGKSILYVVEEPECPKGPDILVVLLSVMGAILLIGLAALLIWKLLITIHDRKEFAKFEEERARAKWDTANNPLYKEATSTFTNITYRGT

[3] = target: T1, integrin αvβ3 (human vitronectin …); assay: ELISA on immobilized αvβ3 incubated with 0.1 µg/ml biotinylated fibrinogen (the blocked ligand) and various concentrations of Fab for 3 h at 37 °C; bound fibrinogen detected with NeutrAvidin-alkaline phosphatase

Sequence of integrin αvβ3 on cells (M21 human melanoma cells; human umbilical vein endothelial cells) (human) (P06756 31-1048, chain 1 of 2): as the sequence (P06756 31-1048, form in doubt, chain 1 of 2) above
Sequence of integrin αvβ3 on cells (M21 human melanoma cells; human umbilical vein endothelial cells) (human) (P05106 27-788, chain 2 of 2, further chain): as the sequence (P05106 27-788, form in doubt, chain 2 of 2) above

Row | Molecule | EC50 (read off the curve) [2] | also measured
1 | monoclonal antibody LM609 (murine IgG) |  | decrease in vitronectin-induced migration of human umbilical vein endothelial cells (transwell), antibody at 5 µg/ml [1]: 60%
2 | LM609 grafted antibody Fab (parent molecule) (Fab, V domains shown, Fab expressed from M13 phage vector in E. coli, purified on protein A; also called LM609 grafted Fab; wild type) VH: QVQLVESGGGVVQPGRSLRLSCAASGFTFSSYDMSWVRQAPGKGLEWVAKVSSGGGSTYYLDTVQGRFTISRDNSKNTLYLQMNSLRAEDTAVYYCARHNYGSFAYWGQGTTVTVSS VL: EIVLTQSPATLSLSPGERATLSCQASQSISNHLHWYQQRPGQAPRLLIRYRSQSISGIPARFSGSGSGTDFTLTISSLEPEDFAVYYCQQSGSWPHTFGGGTKVEIK | ~0.4 µg/mL | 
3 | LM609 grafted antibody combinatorial clone C59 (Fab, V domains shown, Fab) VH: QVQLVESGGGVVQPGRSLRLSCAASGFTFSSYDMSWVRQAPGKGLEWVAKVSSGGGSTYYPDTVQGRFTISRDNSKNTLYLQMNSLRAEDTAVYYCARHNYGSFADWGQGTTVTVSS VL: EIVLTQSPATLSLSPGERATLSCQASQSISNFLHWYQQRPGQAPRLLIRYRSQSISGIPARFSGSGSGTDFTLTISSLEPEDFAVYYCQQSGSWPHTFGGGTKVEIK |  | IC50 (read off the curve) [3]: ~0.1 µg/mL
4 | LM609 grafted antibody variant S102 (Fab, V domains shown, Fab; also called clone S102) VH: QVQLVESGGGVVQPGRSLRLSCAASGFTFSSYDMSWVRQAPGKGLEWVAKVSSGGGSTYYLDTVQGRFTISRDNSKNTLYLQMNSLRAEDTAVYYCARHNYGSFASWGQGTTVTVSS VL: EIVLTQSPATLSLSPGERATLSCQASQSISNHLHWYQQRPGQAPRLLIRYRSQSISGIPARFSGSGSGTDFTLTISSLEPEDFAVYYCQQSGSWPHTFGGGTKVEIK | ~0.1 µg/mL | 
